Test results from the supplement of paper PMC9112550, “Optimization of the antimicrobial peptide Bac7 by deep mutational scanning” (BMC Biology, 2022).

The sequences below were run on Escherichia coli TOP10 (assay: shrunken log2 fold change of peptide-encoding DNA abundance (4.5 h post-induction vs induction); higher = less antimicrobial activity (less host growth inhibition)). Settings: time post-induction: 4.5 h; library: site-saturation at positions 5, 18, 19, 20.
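Also: peptides expressed intracellularly from a pBAD plasmid library in pooled LB shake-flask culture, induced with 0.3% L-arabinose, DNA abundance read by NGS, three biological replicates, DESeq2 with apeglm shrinkage.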

Q: How did the “shrunken log2 fold change” value turn out when RRIRSRPPRLPRPRPRPFHEPRP was run?
A: -0.263

Q: With RRIRFRPPRLPRPRPRPMNCPRP as the sequence, how does the “shrunken log2 fold change” value read?
A: -0.735

Q: With RRIRARPPRLPRPRPRPCQAPRP as the sequence, how does the “shrunken log2 fold change” value read?
A: 0.483

Q: RRIRARPPRLPRPRPRPVTNPRP was tested. Which “shrunken log2 fold change” value did it give?
A: 0.275

Q: Which “shrunken log2 fold change” value does the source give for RRIRGRPPRLPRPRPRPSMKPRP here?
A: 0.354

Q: RRIRVRPPRLPRPRPRPNPYPRP was tested. Which “shrunken log2 fold change” value did it give?
A: -0.376

Q: RRIRARPPRLPRPRPRPLFVPRP was tested. Which “shrunken log2 fold change” value did it give?
A: 0.0919

Q: With RRIRIRPPRLPRPRPRPFCKPRP as the sequence, how does the “shrunken log2 fold change” value read?
A: -0.893

Q: For RRIRARPPRLPRPRPRPKAAPRP, which “shrunken log2 fold change” value is on record?
A: 0.878

Q: With RRIRTRPPRLPRPRPRPHKWPRP as the sequence, how does the “shrunken log2 fold change” value read?
A: -0.029

Q: RRIRERPPRLPRPRPRPHKYPRP was tested. Which “shrunken log2 fold change” value did it give?
A: -0.902

Q: With RRIRNRPPRLPRPRPRPHMNPRP as the sequence, how does the “shrunken log2 fold change” value read?
A: -0.572

Q: RRIRPRPPRLPRPRPRPGFNPRP was tested. Which “shrunken log2 fold change” value did it give?
A: -0.173

Q: With RRIRPRPPRLPRPRPRPGGNPRP as the sequence, how does the “shrunken log2 fold change” value read?
A: -0.0884

Q: RRIRTRPPRLPRPRPRPSSCPRP was tested. Which “shrunken log2 fold change” value did it give?
A: -0.222

Q: For RRIRNRPPRLPRPRPRPAVAPRP, which “shrunken log2 fold change” value is on record?
A: 0.339

Q: RRIRNRPPRLPRPRPRPMQIPRP was tested. Which “shrunken log2 fold change” value did it give?
A: 0.0592

Q: With RRIRSRPPRLPRPRPRPMCHPRP as the sequence, how does the “shrunken log2 fold change” value read?
A: -0.576

Q: How did the “shrunken log2 fold change” value turn out when RRIRQRPPRLPRPRPRPCIYPRP was run?
A: -0.204

Q: How did the “shrunken log2 fold change” value turn out when RRIRTRPPRLPRPRPRPWVGPRP was run?
A: -0.155

Q: How did the “shrunken log2 fold change” value turn out when RRIRNRPPRLPRPRPRPCDPPRP was run?
A: -0.114

Q: How did the “shrunken log2 fold change” value turn out when RRIRTRPPRLPRPRPRPTVHPRP was run?
A: -0.199

Q: RRIRNRPPRLPRPRPRPNALPRP was tested. Which “shrunken log2 fold change” value did it give?
A: -0.134

Q: For RRIRSRPPRLPRPRPRPHYLPRP, which “shrunken log2 fold change” value is on record?
A: -0.403

Q: For RRIRFRPPRLPRPRPRPKNSPRP, which “shrunken log2 fold change” value is on record?
A: -0.533

Q: Which “shrunken log2 fold change” value does the source give for RRIRHRPPRLPRPRPRPPNNPRP here?
A: -0.58

Q: With RRIRDRPPRLPRPRPRPHASPRP as the sequence, how does the “shrunken log2 fold change” value read?
A: 0.178

Q: Which “shrunken log2 fold change” value does the source give for RRIRMRPPRLPRPRPRPSDHPRP here?
A: 0.386

Q: For RRIRHRPPRLPRPRPRPYCNPRP, which “shrunken log2 fold change” value is on record?
A: -0.456

Q: For RRIRQRPPRLPRPRPRPIGFPRP, which “shrunken log2 fold change” value is on record?
A: -0.0702

Q: RRIRQRPPRLPRPRPRPKMWPRP was tested. Which “shrunken log2 fold change” value did it give?
A: 1

Q: RRIRKRPPRLPRPRPRPDGWPRP was tested. Which “shrunken log2 fold change” value did it give?
A: 0.152

Q: For RRIRNRPPRLPRPRPRPHNPPRP, which “shrunken log2 fold change” value is on record?
A: -0.143

Q: For RRIRRRPPRLPRPRPRPEPAPRP, which “shrunken log2 fold change” value is on record?
A: 0.812

Q: Which “shrunken log2 fold change” value does the source give for RRIRWRPPRLPRPRPRPAFPPRP here?
A: 0.446

Q: RRIRVRPPRLPRPRPRPFDMPRP was tested. Which “shrunken log2 fold change” value did it give?
A: -0.16

Q: With RRIRIRPPRLPRPRPRPPKYPRP as the sequence, how does the “shrunken log2 fold change” value read?
A: -0.886

Q: For RRIRYRPPRLPRPRPRPTWSPRP, which “shrunken log2 fold change” value is on record?
A: -0.58

Q: Which “shrunken log2 fold change” value does the source give for RRIRCRPPRLPRPRPRPWVNPRP here?
A: -0.19

Q: With RRIRMRPPRLPRPRPRPPQGPRP as the sequence, how does the “shrunken log2 fold change” value read?
A: 0.834

Q: RRIRDRPPRLPRPRPRPIYNPRP was tested. Which “shrunken log2 fold change” value did it give?
A: -0.771

Q: Which “shrunken log2 fold change” value does the source give for RRIRYRPPRLPRPRPRPIKLPRP here?
A: -0.126

Q: With RRIRQRPPRLPRPRPRPHQVPRP as the sequence, how does the “shrunken log2 fold change” value read?
A: -0.253

Q: With RRIRVRPPRLPRPRPRPIVNPRP as the sequence, how does the “shrunken log2 fold change” value read?
A: -0.11

Q: RRIRARPPRLPRPRPRPPTKPRP was tested. Which “shrunken log2 fold change” value did it give?
A: 0.486

Q: For RRIRERPPRLPRPRPRPAKWPRP, which “shrunken log2 fold change” value is on record?
A: 0.0478

Q: For RRIRIRPPRLPRPRPRPKKSPRP, which “shrunken log2 fold change” value is on record?
A: -0.202

Q: RRIRYRPPRLPRPRPRPKHRPRP was tested. Which “shrunken log2 fold change” value did it give?
A: 0.0727

Q: RRIRLRPPRLPRPRPRPAGEPRP was tested. Which “shrunken log2 fold change” value did it give?
A: -0.0968

Q: With RRIRPRPPRLPRPRPRPEFAPRP as the sequence, how does the “shrunken log2 fold change” value read?
A: 0.602

Q: Which “shrunken log2 fold change” value does the source give for RRIRRRPPRLPRPRPRPLLQPRP here?
A: 0.512

Q: With RRIRVRPPRLPRPRPRPVRCPRP as the sequence, how does the “shrunken log2 fold change” value read?
A: 0.145

Q: RRIRHRPPRLPRPRPRPDFMPRP was tested. Which “shrunken log2 fold change” value did it give?
A: -0.0635

Q: With RRIRYRPPRLPRPRPRPHQQPRP as the sequence, how does the “shrunken log2 fold change” value read?
A: -0.0439

Q: Which “shrunken log2 fold change” value does the source give for RRIRCRPPRLPRPRPRPICRPRP here?
A: -0.0824

Q: RRIRCRPPRLPRPRPRPMPQPRP was tested. Which “shrunken log2 fold change” value did it give?
A: 0.202

Q: Which “shrunken log2 fold change” value does the source give for RRIRIRPPRLPRPRPRPSMMPRP here?
A: -0.886

Q: For RRIRMRPPRLPRPRPRPTLFPRP, which “shrunken log2 fold change” value is on record?
A: 0.428

Q: With RRIRRRPPRLPRPRPRPQWLPRP as the sequence, how does the “shrunken log2 fold change” value read?
A: 0.431

Q: With RRIRFRPPRLPRPRPRPIERPRP as the sequence, how does the “shrunken log2 fold change” value read?
A: 0.116

Q: Which “shrunken log2 fold change” value does the source give for RRIRLRPPRLPRPRPRPCMDPRP here?
A: -0.351

Q: RRIRHRPPRLPRPRPRPGNQPRP was tested. Which “shrunken log2 fold change” value did it give?
A: 0.0401

Q: RRIRNRPPRLPRPRPRPSGLPRP was tested. Which “shrunken log2 fold change” value did it give?
A: 0.0284

Q: Which “shrunken log2 fold change” value does the source give for RRIRARPPRLPRPRPRPPDWPRP here?
A: 1.23

Q: For RRIRVRPPRLPRPRPRPKRYPRP, which “shrunken log2 fold change” value is on record?
A: -0.078

Q: For RRIRHRPPRLPRPRPRPRCKPRP, which “shrunken log2 fold change” value is on record?
A: -0.053

Q: RRIRPRPPRLPRPRPRPACVPRP was tested. Which “shrunken log2 fold change” value did it give?
A: 0.26

Q: RRIRYRPPRLPRPRPRPSNTPRP was tested. Which “shrunken log2 fold change” value did it give?
A: -1.06

Q: For RRIRLRPPRLPRPRPRPMTEPRP, which “shrunken log2 fold change” value is on record?
A: -0.0455

Q: How did the “shrunken log2 fold change” value turn out when RRIRVRPPRLPRPRPRPTPPPRP was run?
A: 0.406

Q: With RRIRNRPPRLPRPRPRPPRMPRP as the sequence, how does the “shrunken log2 fold change” value read?
A: 0.24

Q: How did the “shrunken log2 fold change” value turn out when RRIRWRPPRLPRPRPRPTFWPRP was run?
A: 0.617

Q: For RRIRNRPPRLPRPRPRPHMGPRP, which “shrunken log2 fold change” value is on record?
A: -0.133

Q: For RRIRTRPPRLPRPRPRPKLHPRP, which “shrunken log2 fold change” value is on record?
A: -0.101

Q: For RRIRTRPPRLPRPRPRPWAPPRP, which “shrunken log2 fold change” value is on record?
A: 0.154

Q: RRIRLRPPRLPRPRPRPQYIPRP was tested. Which “shrunken log2 fold change” value did it give?
A: -0.189

Q: RRIRKRPPRLPRPRPRPTARPRP was tested. Which “shrunken log2 fold change” value did it give?
A: 0.508

Q: Which “shrunken log2 fold change” value does the source give for RRIRDRPPRLPRPRPRPAFTPRP here?
A: -0.155

Q: With RRIRCRPPRLPRPRPRPPVDPRP as the sequence, how does the “shrunken log2 fold change” value read?
A: 0.787

Q: For RRIRPRPPRLPRPRPRPHLRPRP, which “shrunken log2 fold change” value is on record?
A: 0.151

Q: With RRIRGRPPRLPRPRPRPAMQPRP as the sequence, how does the “shrunken log2 fold change” value read?
A: 1.05

Q: Which “shrunken log2 fold change” value does the source give for RRIRGRPPRLPRPRPRPDHWPRP here?
A: 0.186

Q: RRIRIRPPRLPRPRPRPLGGPRP was tested. Which “shrunken log2 fold change” value did it give?
A: 0.00908

Q: How did the “shrunken log2 fold change” value turn out when RRIRFRPPRLPRPRPRPWHWPRP was run?
A: 0.00852

Q: How did the “shrunken log2 fold change” value turn out when RRIRWRPPRLPRPRPRPIGVPRP was run?
A: 0.0389

Q: Which “shrunken log2 fold change” value does the source give for RRIRDRPPRLPRPRPRPRRAPRP here?
A: 0.691

Q: RRIRTRPPRLPRPRPRPEAVPRP was tested. Which “shrunken log2 fold change” value did it give?
A: -0.0221

Q: How did the “shrunken log2 fold change” value turn out when RRIRARPPRLPRPRPRPELAPRP was run?
A: 1.39

Q: With RRIRIRPPRLPRPRPRPGNCPRP as the sequence, how does the “shrunken log2 fold change” value read?
A: -0.549

Q: How did the “shrunken log2 fold change” value turn out when RRIRVRPPRLPRPRPRPPVIPRP was run?
A: -0.101

Q: How did the “shrunken log2 fold change” value turn out when RRIRQRPPRLPRPRPRPWPQPRP was run?
A: -0.0188

Q: With RRIRNRPPRLPRPRPRPCHNPRP as the sequence, how does the “shrunken log2 fold change” value read?
A: -0.818

Q: With RRIRHRPPRLPRPRPRPRNPPRP as the sequence, how does the “shrunken log2 fold change” value read?
A: 0.0812

Q: With RRIRQRPPRLPRPRPRPRQVPRP as the sequence, how does the “shrunken log2 fold change” value read?
A: 0.302

Q: For RRIRWRPPRLPRPRPRPGRTPRP, which “shrunken log2 fold change” value is on record?
A: 0.0519

Q: With RRIRRRPPRLPRPRPRPYVAPRP as the sequence, how does the “shrunken log2 fold change” value read?
A: -0.361

Q: With RRIRSRPPRLPRPRPRPIWAPRP as the sequence, how does the “shrunken log2 fold change” value read?
A: -0.133

Q: For RRIRIRPPRLPRPRPRPLRLPRP, which “shrunken log2 fold change” value is on record?
A: 0.281

Q: Which “shrunken log2 fold change” value does the source give for RRIRHRPPRLPRPRPRPGMGPRP here?
A: 0.0516

Q: Which “shrunken log2 fold change” value does the source give for RRIRDRPPRLPRPRPRPPALPRP here?
A: 0.239

Q: RRIRERPPRLPRPRPRPWDGPRP was tested. Which “shrunken log2 fold change” value did it give?
A: 0.421

Q: For RRIRMRPPRLPRPRPRPMYGPRP, which “shrunken log2 fold change” value is on record?
A: 0.0383

Q: Which “shrunken log2 fold change” value does the source give for RRIRTRPPRLPRPRPRPMTMPRP here?
A: -0.223

Q: For RRIRMRPPRLPRPRPRPFGGPRP, which “shrunken log2 fold change” value is on record?
A: 0.222

Q: With RRIRRRPPRLPRPRPRPQSFPRP as the sequence, how does the “shrunken log2 fold change” value read?
A: 0.0366

Q: With RRIRDRPPRLPRPRPRPFIKPRP as the sequence, how does the “shrunken log2 fold change” value read?
A: -0.206

Q: For RRIRFRPPRLPRPRPRPMADPRP, which “shrunken log2 fold change” value is on record?
A: -0.00574

Q: With RRIRWRPPRLPRPRPRPAHNPRP as the sequence, how does the “shrunken log2 fold change” value read?
A: 0.352

Q: With RRIRRRPPRLPRPRPRPTHCPRP as the sequence, how does the “shrunken log2 fold change” value read?
A: 0.562
